These results are taken from publication doi:10.1101/2023.03.27.534461 (bioRxiv, 2023).

The series concerns the molecule itself. In words: cryo-EM structure; 100 nM unmodified nucleosome with 10 μM Bre1-Bre1-Rad6 fusion protein, 20 mM HEPES pH 7.5, 50 mM NaCl, 1 mM DTT, room temperature 30 min; cross-linked with glutaraldehyde, then Superdex 200; three states resolved.

B1: Bre1 591–700 (domain or fragment, yeast, UniProt Q07457 591-700, looked up)
chain: KLNDTEIELKHFKQKASHLESKCEKLHDTLFRGNNKNKGSSDEALVEELANFRTLVYCSLCSKNWKNMAIKTCGHVFCENCCKERLAARMRKCPTCNKAFSSNDLLTVHL
notes: Bre1, yeast E3 ubiquitin ligase, residues 591-700: coiled coil that mediates dimerization and RING domain; In the structure the two copies of Bre1(591-700) stood on one chain of the fusion m1, joined by a (GGS)4 linker; written here as a molecule of its own for the pairs Bre1 with H2A and Bre1 with Bre1; also called Bre1-A; Bre1-B; source: E. coli BL21(DE3)Rosetta2, purified, as part of the …
Regarding B1, the binding result was “binds”.
